Source: publication PMC13182210, “Time‐Resolved Native Mass Spectrometry Reveals Reversible Light‐Driven Oligomerization of Arabidopsis Cryptochrome 1 and Its Antagonism by BIC1” (Angewandte Chemie (International Ed. in English), 2026)

B1: Arabidopsis thaliana cryptochrome 1 photolyase homology region (CRY1-PHR) (domain or fragment, UniProt Q43125 1-509, looked up)
chain: MSGSVSGCGSGGCSIVWFRRDLRVEDNPALAAAVRAGPVIALFVWAPEEEGHYHPGRVSRWWLKNSLAQLDSSLRSLGTCLITKRSTDSVASLLDVVKSTGASQIFFNHLYDPLSLVRDHRAKDVLTAQGIAVRSFNADLLYEPWEVTDELGRPFSMFAAFWERCLSMPYDPESPLLPPKKIISGDVSKCVADPLVFEDDSEKGSNALLARAWSPGWSNGDKALTTFINGPLLEYSKNRRKADSATTSFLSPHLHFGEVSVRKVFHLVRIKQVAWANEGNEAGEESVNLFLKSIGLREYSRYISFNHPYSHERPLLGHLKFFPWAVDENYFKAWRQGRTGYPLVDAGMRELWATGWLHDRIRVVVSSFFVKVLQLPWRWGMKYFWDTLLDADLESDALGWQYITGTLPDSREFDRIDNPQFEGYKFDPNGEYVRRWLPELSRLPTDWIHHPWNAPESVLQAAGIELGSNYPLPIVGLDEAKARLHEALSQMWQLEAASRAAIENGSEEG
notes: Cryptochrome 1 of Arabidopsis thaliana, photolyase homology region (PHR) domain; Construct limits, tags and host are not in the main text and probably stand in the Supporting Information; The oligomeric state depends on light: mostly monomer in the dark, tetramer under blue light; also called CRY1 PHR domain; wild-type CRY1; source: recombinant, purified
B2: Blue-light Inhibitor of Cryptochromes 1 (BIC1) (natural protein, UniProt Q9LXJ1 1-140, looked up)
chain: MMNIDDTTSPMAHPIGPSQPPSDQTKQDPPSLPQEAASSVSADKKDLALLEEKPKQSQEEDRVDTGRERLKKHRREIAGRVWIPEIWGQEELLKDWIDCSTFDTCLVPAGISSARTALVEEARRAASASGGLHNRCLILR
notes: The calculated mass may include a tag; Construct details probably stand in the Supporting Information

Columns and labels:
[1] = molecular target: CRY1^L407F mutant of the Arabidopsis CRY1 PHR domain (Arabidopsis thaliana) (UniProt Q43125); assay: SEC; analytical size exclusion chromatography, samples kept in darkness
[2] = molecular target: CRY1^L407F mutant of the Arabidopsis CRY1 PHR domain (Arabidopsis thaliana) (UniProt Q43125); assay: native MS; LILBID-MS in darkness; CRY1 alone or with BIC1 in an equimolar ratio
[3] = molecular target: the molecule itself; assay: native MS; nESI-MS with a blue-light LED on the sample, static and time-resolved, with 100 µM ATP; two-step reversible kinetic model monomer to dimer to tetramer
[4] = molecular target: the molecule itself; assay: native MS; LILBID-MS with a blue-light LED on the sample throughout; CRY1 alone, with BIC1 in an equimolar ratio, or BIC1 added to pre-illuminated tetrameric CRY1
[5] = molecular target: the molecule itself; assay: native MS; nESI-MS with a blue-light LED on the sample, static and time-resolved, room temperature, no ATP; two-step reversible kinetic model monomer to dimer to tetramer
[6] = molecular target: CRY1^L407F mutant of the Arabidopsis CRY1 PHR domain (Arabidopsis thaliana) (UniProt Q43125); assay: native MS; quantitative LILBID-MS (qLILBID-MS), label-free, in the dark; mean of three measurements
[7] = molecular target: B1; assay: as above; conditions: both partners purified
[8] = molecular target: B1; assay: native MS; quantitative LILBID-MS (qLILBID-MS), label-free, under blue light; mean of three measurements; conditions: both partners purified

CRY1^L407F mutant of the Arabidopsis CRY1 PHR domain (from UniProt Q43125 1-681) (domain or fragment)
stoichiometry N [1]: 4 | stoichiometry N [2]: 4

B1
fold decrease of dimer dissociation rate with 100 µM ATP against no ATP [3]: ~10 fold | fold decrease of tetramer dissociation rate with 100 µM ATP against no ATP [3]: ~2 fold | fold increase of dimer-to-tetramer association rate with 100 µM ATP against no ATP [3]: 4 fold | fold increase of monomer-to-dimer association rate with 100 µM ATP against no ATP [3]: ~2 fold | stoichiometry N [4]: 4 | half-life of tetramer formation (single-exponential fit) [5]: ~18 s

B2
Kd [6]: 100 nM | Kd [7]: ~1200 nM | Kd [8]: 130 ± 90 nM
